According to the supplement of paper PMC9170038:

Test system: MS2 coat protein
Assay: apparent KD of MS2 coat protein; designed switch direction (-1 OFF switch, 1 ON switch): -1; higher = weaker reporter binding
Summary of the method: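 Designed RNA switches with common flanks were made on Illumina chips by stalled E. coli RNA polymerase. Titration with SNAP-549-labelled MS2 coat protein doubled from 0.7 or 1.5 nM up to 3 µM. Apparent KD is each design's median over clusters after curve-fitting normalised fluorescence.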

[1] = Eterna round: R95, input ligand: microRNA oligo, concentration not stated
[2] = input ligand: microRNA oligo, concentration not stated
[3] = Eterna round: R95, input ligand: FMN 200 uM
[4] = Eterna round: R95, input ligand: none

Sequence | apparent KD of MS2 coat protein [1] | apparent KD of MS2 coat protein (input ligand: FMN 200 uM) | apparent KD of MS2 coat protein (input ligand: none) | apparent KD of MS2 coat protein [2] | further results
AGCAUCUGAGGAUAUACUGGGUAUGGAAGGCGAAGGGCCAGACAUGAGGAUCACCCAUGUAGAAGGCAGUUUGC [Esenonan] (puzzle: Exclusion 2) | 78.4 nM | – | – | – | –
AGCAUGAGAGAGGAUAUGGUCGCCGCAACAUGACCAGAAGGCUCAACAUGAGGAUCACCCAUGUGGCCCGGCUC [Eternabot (L1) Solution 33] (Eterna round: R97, puzzle: Exclusion 6) | – | 33.2 nM | 19.5 nM | – | –
AGCCACAGAGGAUAUACAUACAUCCAGUAGCGUAUAUCGCUACAUGAGGAUCACCCAUGUAGAAGGCUGUGGCA [Omei Ex2 BD B23] (Eterna round: R97, puzzle: Exclusion 2) | – | 86.7 nM | 18.4 nM | – | –
AGCCUACAUGAGGAUCACCCAUGUCAGGAUAUCUCGCAACGUGUCAAGUUCACGUCGCAGAGAAGGGACUCGGG [Tienberi] (puzzle: Exclusion 1) | 51.9 nM | – | – | – | –
AGCGAGGCAGGAUAUACAUGAGGAUCACCCAUGUGCUUGCAUGGCGUGGGACGUCGAGGUAGAAGGGCCAUGCC [EX3 #70] (Eterna round: R97, puzzle: Exclusion 3) | – | 87.3 nM | 52.1 nM | – | –
AGCGCCAUCGUGAGAUGGCGUAUUACAUGAGGAUCACCCAUGUAGGAUAUCGAUUGCUUUGCAGUCGAGAAGGACAUGUCCUAG [JL ENG3 3.80 Mod F] (Eterna round: R96, puzzle: Exclusion NG 3) | – | 38.3 nM | 27.9 nM | 23.4 nM | –
AGCGUGUGAGAAGGAUAUCGACCCGAGACAGAUUGAGAAGGUCUCACAUGAGGAUCACCCAUGUGGACAGGGCGAGCUCCAGUC [Eternabot solution 11] (Eterna round: R96, puzzle: Exclusion NG 1) | – | 28.3 nM | 23.4 nM | 14.6 nM | –
AGCUAAAUAGGAUAUGCCCGGGAUAACAUGAGGAUCACCCAUGUGACCGAUUCAUGUCCUGCAGAAGGAUUUGGGA [Mod of ViennaUCT 5 - Jieux - Exclusion 5] (Eterna round: R97, puzzle: Exclusion 5) | – | 17 nM | 13 nM | – | –
AGCUAGUCAGGAUAUACGAACAUGUCAAAAGACGUGAAGGGACAUGAGGAUCACCCAUGUAGAAGGGACUAGCC [salish99-Ex2-17] (Eterna round: R96, puzzle: Exclusion 2) | – | – | – | 23.8 nM | –
AGCUCACAUGAGGAUCACCCAUGUCAGGAUAUCGACUGAACAGCUUCGGCUGUUCAGUCGAGAAGGGACAAUUA [Brourdxlusion 5 - Jieux - Exclusion 1] (Eterna round: R97, puzzle: Exclusion 1) | – | 182 nM | 59.7 nM | – | –
AGCUGUGGCCGAGGAUAUACAAUAACGAUGAGUGGAUUACACUCUUCGACAUGAGGAUCACCCAUGUAGAAGGCGGUCUCAGCA [Eli eng2 - 001] (Eterna round: R96, puzzle: Exclusion NG 2) | – | 41.3 nM | 18 nM | 14.6 nM | –
AGCUGUGGCCGAGGAUAUCACGACCGAUGGAAAACCAUCGGAACUCCACAUGAGGAUCACCCAUGUGAGAAGGCGGUCUCAGCA [Eli eng2 - 028] (Eterna round: R96, puzzle: Exclusion NG 2) | – | 27.3 nM | 13.4 nM | 10.2 nM | –
AGCUGUGGCCGAGGAUAUCUAAUAUCCCUAACCGAAAUAUAAUCGGACAUGAGGAUCACCCAUGUAGAGAAGGCGGUCUCAGCA [Eli eng2 - 065] (Eterna round: R96, puzzle: Exclusion NG 2) | – | 211 nM | 20.8 nM | 19.3 nM | –
AGCUGUGGCCGAGGAUAUCUACUAAUCCAAACCGAAAUAUAAUCGGACAUGAGGAUCACCCAUGUAGAGAAGGCGGUCUCAGCA [Eli eng2 - 076] (Eterna round: R96, puzzle: Exclusion NG 2) | – | – | – | 199 nM | –
AGCUGUGGCCGAGGAUAUCUAUCUCAAAUAACCGAAAUAUAAUCGGACAUGAGGAUCACCCAUGUAGAGAAGGCGGUCUCAGCA [Eli eng2 - 089] (Eterna round: R96, puzzle: Exclusion NG 2) | – | – | – | 11.4 nM | –
AGCUGUGGCCGAGGAUAUCUGUUCCAUAAAACCGAAAUAUAAUCGGACAUGAGGAUCACCCAUGUAGAGAAGGCGGUCUCAGCA [Eli eng2 - 099] (Eterna round: R96, puzzle: Exclusion NG 2) | – | – | – | 18.3 nM | –

Sequence | apparent KD of MS2 coat protein [1] | apparent KD of MS2 coat protein (input ligand: FMN 200 uM) | apparent KD of MS2 coat protein (input ligand: none) | apparent KD of MS2 coat protein [2] | further results
AGCUGUGGCCGAGGAUAUGACAUGAGGAUCACCCAUGUACAUGAUUAGGCCUGGUAACAGGCUCGUCAGAAGGCGGUCUCAGCA [Eli eng2 - 009] (Eterna round: R96, puzzle: Exclusion NG 2) | – | 46.2 nM | 15.9 nM | 13.6 nM | –
AGGAUGUGAGGAUAUCCAUCCCGCGAAUGCGGGUAAUAAAUGGAGAAGGCACAUGAGGAUCACCCAUGUGAUGA [Laleatus] (Eterna round: R97, puzzle: Exclusion 4) | – | 978 nM | 47.8 nM | – | –
AGGAUGUUAGGAUAUCGGAUAUGCUGGAGGAGGUGGAUUUACGAGAAGGAACAUGAGGAUCACCCAUGUUGGAG [JR_Exclu4_Sub047] (puzzle: Exclusion 4) | 20.9 nM | – | – | – | –
AGGCAGCAAGGAUAUACAUAAUUCCUACAAGUCAGCAUAGGACAUGAGGAUCACCCAUGUAGAAGGUGCAAAGA [Soesquma] (puzzle: Exclusion 2) | 24.5 nM | – | – | – | –
AGGCGUGCUGAGGAUAUACUACCGGUUGCGAUAGUAGAAGGUAGCACAUGAGGAUCACCCAUGUGGUCAGAUGC [Bequte] (puzzle: Exclusion 6) | 19.1 nM | – | – | – | –
AGGGAGCGAGGAUAUACAGAGUAAGAAACUACUCCCUCAGUACAUGAGGAUCACCCAUGUAGAAGGCGCCCGAC [EX2 A.2] (Eterna round: R97, puzzle: Exclusion 2) | – | 33.7 nM | 20.9 nM | – | –
AGGUAACAUGAGGAUCACCCAUGUCAGGAUAUCAGUAAGAUGAGGAUAGAAUAGAGUAUGAGAAGGGACUAUAU [Excluse me! 22 - Jieux - Exclusion 1] (puzzle: Exclusion 1) | 38.5 nM | – | – | – | apparent KD of MS2 coat protein [3]: 34 nM; apparent KD of MS2 coat protein [4]: 47.6 nM
AGGUAGUCAGGAUAUUAAGAGUAGCGGGAUAACGCUACGAGUGAGAAGGGACAUGAGGAUCACCCAUGUUUUUU [JR_Ex4_Sub072] (Eterna round: R97, puzzle: Exclusion 4) | – | 22 nM | 22.5 nM | – | –
AGGUCACAUGAGGAUCACCCAUGUGAGGAUAUAGACUCAAGAGCUUCGGCUCUCAAGUUUAGAAGGCGCAAUGA [EX1 #52] (Eterna round: R97, puzzle: Exclusion 1) | – | 31.7 nM | 31.2 nM | – | –
AGGUGUAGAGGAUAUCGACUUUCUCACAUGAGGAUCACCCAUGUCCUGGUCACCCAGGACCGAGAAGGCUACACCA [Omei Ex5 D27] (Eterna round: R97, puzzle: Exclusion 5) | – | 204 nM | 27.6 nM | – | –
AGGUGUAGAGGAUAUCUCUUCUCUCACAUGAGGAUCACCCAUGUCCUGGGUACCUAGGAGAGAGAAGGCUACACCA [Omei Ex5 D11] (Eterna round: R97, puzzle: Exclusion 5) | – | 1370 nM | 587 nM | – | –
AGUAACAGAGGAUAUACUGUUUUAUGUGUUUGUUAUUUUGAACAUGAGGAUCACCCAUGUAGAAGGCUGAAUAA [JMF 92] (puzzle: Exclusion 2) | 20 nM | – | – | – | –
AGUAACUAUCACGAAAGUGAUAGUUACAAACAGGUGAAAACAUGAGGAUCACCCAUGUCCUCAUUUGCUCGUCUUAU [Sensor 3 - 8] (puzzle: Sensor v3, turn-off variant 2) | 64.5 nM | – | – | – | apparent KD of MS2 coat protein [3]: 213 nM; apparent KD of MS2 coat protein [4]: 240 nM
AGUACUAACACGAAAGUGUUAGUACAAUAAGCUUGUGUAACAUGAGGAUCACCCAUGUCCUCAUAAGCUCGUCUUAU [salish99_TOv2_r3_043] (puzzle: Sensor v3, turn-off variant 2) | 38.3 nM | – | – | – | apparent KD of MS2 coat protein [3]: 50.6 nM; apparent KD of MS2 coat protein [4]: 51.6 nM
AGUACUAACACGAAAGUGUUGGUACAAUAAGCUUGUGAAACAUGAGGAUCACCCAUGUCCUCAUAAGCUCGUCUUAU [salish99_TOv2_r3_036] (puzzle: Sensor v3, turn-off variant 2) | 599 nM | – | – | – | apparent KD of MS2 coat protein [3]: 17.9 nM; apparent KD of MS2 coat protein [4]: 16.7 nM
AGUACUAACACGAGAGUGUUAGUACAAUAAGCUUGUGUUACAUGAGGAUCACCCAUGUCCUCAUAAGCUCGUCUUAA [Mat - Sensor v3 - Turn-off var 2 - D58] (puzzle: Sensor v3, turn-off variant 2) | 727 nM | – | – | – | apparent KD of MS2 coat protein [3]: 41.3 nM; apparent KD of MS2 coat protein [4]: 42.5 nM
